For test [1], the target named is T1, SARS-CoV-2 S1蛋白 (ACRO Biosystems) (SARS-CoV-2, UniProt P0DTC2 16-685).
T1 construct: domain: S1; also called SARS-CoV-2S1抗原; 生物素化SARS-CoV-2S1
In words: competition ELISA, S1 coated, competitor HRP-labelled hACE2-Fc. On the technique in general: ELISA stands for enzyme-linked immunosorbent assay.

The target in a further test is 刺突S-鼠Fc融合蛋白 (S-mFc) (SARS-CoV-2; mouse, UniProt P0DTC2 14-1213). As to the kind of experiment: flow cytometry, blocking of S-mFc binding to 293T-ACE2 cells. For orientation: In flow cytometry, cells or beads pass a laser one at a time.
Test [2] addresses T1, SARS-CoV-2 S1蛋白 (ACRO Biosystems). In words: BLI, biotinylated SARS-CoV-2 S1 on SA sensor, antibody as analyte, 1:1 fit. Background: BLI is a label-free optical method that tracks binding on a fibre tip over time.

B1: 人源化抗体hS1B-73-3 (antibody, V domains shown)
VH: EVQLVQSGAEVKKPGSSVKVSCKASGYAFTNFLIEWVREAPGQGLEWIGMINPGSGDTNYNEKFKGKATLTADKSTSTVYMELSSLRSEDTAVYFCARQLGLPGFVYWGRGTTVTVSS
VL: DIQMTQSPSSLSASVGDRVTITCKASQDINSYLTWLQQKPGKSPKTLIYRANRLVEGVPSRFSGSGSGQDFTLKISSLQPEDIATYYCLQHDEFPLTFGQGTKLEIKR
notes: also called 抗SARS-CoV-2S1 RBD人源化抗体hS1B-73-3
Turning to B1, the EC50 – broadly, the concentration that produces a half-maximal response – in test [1] stood at 0.0254 µg/mL. In addition, the IC50 – broadly, the concentration at which inhibition is half-maximal – in the test with 刺突S-鼠Fc融合蛋白 (S-mFc) is 4.33 ng/mL. Besides, in test [2], the Kd (as a rule, a measure of binding affinity in units of concentration) came to 0.0207 nM; the koff (in general, the first-order rate constant of dissociation) stood at 2.22e-05 s⁻¹; the kon – broadly, a measure of how fast the partners come together – was found to be 1.07e+06 M⁻¹ s⁻¹.

These data come from CN114106161A (ANYUAN MEDICINE SCIENCE AND TECH SHANGHAI LIMITED COMPANY, dated 2022).
